Measured values from paper PMC12578637, “Structure of a distinct β-barrel assembly machinery complex in the Bacteroidota” (Nature Microbiology, 2025).

T1: BtBamA (Bt3725), B. thetaiotaomicron BamA with N-terminal His7 tag (B. thetaiotaomicron, UniProt Q8A1E1 20-885)
T1 sequence (looked up): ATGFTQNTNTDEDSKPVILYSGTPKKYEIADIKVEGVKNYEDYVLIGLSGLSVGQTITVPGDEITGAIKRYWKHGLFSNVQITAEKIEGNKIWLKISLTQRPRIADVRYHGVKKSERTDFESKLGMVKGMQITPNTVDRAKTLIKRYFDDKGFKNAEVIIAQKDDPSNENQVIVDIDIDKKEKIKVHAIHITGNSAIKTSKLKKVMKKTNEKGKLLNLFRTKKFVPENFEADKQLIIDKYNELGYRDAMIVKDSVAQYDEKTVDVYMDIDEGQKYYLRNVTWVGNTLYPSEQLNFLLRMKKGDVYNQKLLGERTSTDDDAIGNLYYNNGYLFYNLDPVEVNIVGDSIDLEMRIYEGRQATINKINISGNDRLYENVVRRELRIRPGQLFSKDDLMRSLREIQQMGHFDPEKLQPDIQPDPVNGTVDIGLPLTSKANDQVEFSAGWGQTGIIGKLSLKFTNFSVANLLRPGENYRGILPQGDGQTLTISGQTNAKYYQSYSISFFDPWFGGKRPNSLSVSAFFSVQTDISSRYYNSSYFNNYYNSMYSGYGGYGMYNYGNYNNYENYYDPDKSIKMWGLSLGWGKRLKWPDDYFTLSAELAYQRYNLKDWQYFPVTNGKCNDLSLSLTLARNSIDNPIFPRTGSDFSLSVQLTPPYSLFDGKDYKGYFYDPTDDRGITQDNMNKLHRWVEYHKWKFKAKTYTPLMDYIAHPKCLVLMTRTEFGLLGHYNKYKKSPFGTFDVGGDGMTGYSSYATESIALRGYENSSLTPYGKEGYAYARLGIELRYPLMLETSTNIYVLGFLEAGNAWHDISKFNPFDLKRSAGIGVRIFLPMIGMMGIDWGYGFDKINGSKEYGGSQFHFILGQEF

T2: BtBamH (Bt4306) (B. thetaiotaomicron (endogenous in B. …, UniProt Q89ZS0 18-542, tri-acylated lipid anchor on the N-terminal cysteine)); O-glycosylation (Ser309 among the sites))
T2 sequence (looked up): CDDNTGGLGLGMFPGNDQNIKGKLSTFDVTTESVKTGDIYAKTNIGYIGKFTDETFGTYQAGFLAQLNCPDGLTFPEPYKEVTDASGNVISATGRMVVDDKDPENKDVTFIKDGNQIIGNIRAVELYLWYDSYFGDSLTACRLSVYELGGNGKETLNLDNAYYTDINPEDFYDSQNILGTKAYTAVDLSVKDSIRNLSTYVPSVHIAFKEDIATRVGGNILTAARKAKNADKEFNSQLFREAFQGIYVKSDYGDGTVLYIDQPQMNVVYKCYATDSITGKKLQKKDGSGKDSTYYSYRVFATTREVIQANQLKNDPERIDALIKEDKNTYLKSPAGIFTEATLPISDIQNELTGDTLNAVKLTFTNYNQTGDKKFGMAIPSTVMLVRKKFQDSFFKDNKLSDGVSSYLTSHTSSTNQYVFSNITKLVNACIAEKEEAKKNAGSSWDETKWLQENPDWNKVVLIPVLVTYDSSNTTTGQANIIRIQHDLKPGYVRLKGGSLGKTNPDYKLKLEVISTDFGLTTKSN

T3: PgBamA, BamA of P. gingivalis ATCC 33277 (P. gingivalis (endogenous in P. …, UniProt B2RHH3 20-891))
T3 construct: BamA of Porphyromonas gingivalis strain ATCC 33277; Periplasmic part only very weak, not modelled, possibly clipped by gingipains; EL3 (39 residues) has no density; source: endogenous, P. gingivalis expressing His-tagged BamH, membranes solubilised in 1% DDM
T3 sequence (looked up): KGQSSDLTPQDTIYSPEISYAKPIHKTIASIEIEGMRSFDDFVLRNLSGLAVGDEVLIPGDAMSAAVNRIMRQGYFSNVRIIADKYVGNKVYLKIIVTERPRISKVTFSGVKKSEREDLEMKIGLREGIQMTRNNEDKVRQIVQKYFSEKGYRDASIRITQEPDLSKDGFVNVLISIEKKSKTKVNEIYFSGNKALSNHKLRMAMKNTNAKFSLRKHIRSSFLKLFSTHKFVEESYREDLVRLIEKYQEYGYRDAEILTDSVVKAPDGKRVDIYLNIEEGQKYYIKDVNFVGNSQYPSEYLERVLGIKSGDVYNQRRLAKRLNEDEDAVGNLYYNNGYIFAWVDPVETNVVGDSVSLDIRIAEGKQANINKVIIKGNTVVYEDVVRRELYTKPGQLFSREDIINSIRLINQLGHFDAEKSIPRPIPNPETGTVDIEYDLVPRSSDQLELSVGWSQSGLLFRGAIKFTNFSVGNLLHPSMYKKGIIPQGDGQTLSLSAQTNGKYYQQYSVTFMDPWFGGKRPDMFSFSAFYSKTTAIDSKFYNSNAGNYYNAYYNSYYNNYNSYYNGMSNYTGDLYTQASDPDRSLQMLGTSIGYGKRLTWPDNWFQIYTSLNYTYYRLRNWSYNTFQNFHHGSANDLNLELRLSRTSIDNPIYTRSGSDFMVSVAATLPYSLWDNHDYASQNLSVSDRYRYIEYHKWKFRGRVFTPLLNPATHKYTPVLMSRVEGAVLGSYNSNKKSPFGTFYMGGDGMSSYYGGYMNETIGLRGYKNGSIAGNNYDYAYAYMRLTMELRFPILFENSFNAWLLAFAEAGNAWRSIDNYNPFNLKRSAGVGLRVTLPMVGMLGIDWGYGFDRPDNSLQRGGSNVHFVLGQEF

B1: PgBamK, BamK of P. gingivalis ATCC 33277 (natural protein, UniProt B2RK12 24-203, looked up)
chain: CKKSDIKSLKEMKKDERKAIESFINRMGFTIKEGHEGQSEFDPDIMYHFDNDLYMQVLDKGKEPPVLNKTKINVRMEGFMFNRERDSIYVFNSLTSGGFQESVFRYIYKYNDGDIHFELIKCTTGSNLDMFVCEGVAFPMTMLGNKARVRLIVPFRIGPESLYSRGLTGYYKEVEYVFRD
notes: BamK (peptidyl-prolyl isomerase) of Porphyromonas gingivalis strain ATCC 33277; source: endogenous, P. gingivalis expressing His-tagged BamH, membranes solubilised in 1% DDM
B2: BtBamD (Bt0573) (natural protein, UniProt Q8AA92 18-267, looked up)
chain: CGEYNKLLKSTDYEYKYEAAKNYFAKGQYNRSATLLNELITILKGTDKAEESLYMLGMSYYNQKDYQTAAQTFITYFNTYPRGTFTELARFHAGKSLFLDTPEPRLDQSSTYQAIQQLQMFMEYFPNSTKKQEAQDMIFALQDKLVLKELYSAKLYYNLGNYLGNNYESCVITAQNALKDYPYTDYREELSILILRARHEMAIYSVEDKKMDRYRETIDEYYAFKNEFPESKYLKEAEKIFNESQKVIKD
B3: BtBamI (Bt3727) (natural protein, UniProt Q8A1D9 22-493, looked up)
chain: CLDNDNEVNYSPDATIRAFELDTIGYGVNYKFTIDQVSRLIYNVDSLPVNADTIINSILIKTLTTASGIVTMKDQNDQDSIVNINDSIDLTKYVNATEKNNFLVLKVWAPNMEVQNEYKVNIRMHTMVPDSLSWGKDPIANNPVRNTAEKQKVVTLGDKILLFAQNNEIYSTAIPAGSPTDRLNYGQKWDKETTGKLPDGADVTSIIRFVDKLYLLTKNKEVYNSNDGLTWTKDEVLNSDGVSVTNLITSFSDSDGSNHKKINGIAGIVEINGEKYFSFAEKDVTWEKDIDKLTVVPAEFPINNLSADVYATESGTLNAIVVGNTEDGLDNDTATVVWASEDGKAWIPMEIPSNNNCPKLVDPSIIHYNDAFYICGKETKDDAKGFQKFYTSPTLLVWKGVDRMFMLPGILPPVKLEGGVTQHPSLHESSFKGKEVNYTMVVDRNHYIWMVGGQGIDKIWRGRVNKLGFLIQ
modifications: lipid anchor cysteine; O-glycosylation at 10 sites (Ser67 among them)
B4: BtBamK (Bt3949) (natural protein, UniProt Q8A0S2 21-214, looked up)
chain: CDDSKTYAEMLEDEKNAVNKFIKDKGIRIISQDEFEKNDTVTNLERNEYVALSDGVYMQIVDRGSAENKTDTFANNNEICVRYIEEDIMTRDTTCFNVFLEEWGDANQLYTNPAVFRYVAEGSYVYGTFIQMDYYWASYYQSTAVPAGWLLALPFVRNYAHVRLIVPSKVGHSSAQQYVNPYYYDIWTFSKALN
modifications: lipid anchor cysteine; O-glycosylation sites
B5: PgBamJ, BamJ of P. gingivalis ATCC 33277 (natural protein, UniProt B2RH82 25-185, looked up)
chain: CEKRPNEEKQRRHDNEVAFNAYADSTNFKKVSVDGSTAYVYMRWITNGTGTEHPIATSRVEVHYQTYRLVGNIMVDGNYNSEKPARITLYRNEKDKSITGFRIALQNMVIGDECEFIVPWYLAYGSKGVPASSANLVPIPSYSALRFIVKLSGIIPEEDKK
notes: BamJ (peptidyl-prolyl isomerase) of Porphyromonas gingivalis strain ATCC 33277; source: endogenous, P. gingivalis expressing His-tagged BamH, membranes solubilised in 1% DDM
B6: PgBamH (PGN_1735) with C-terminal 7His tag (natural protein, P. gingivalis, UniProt B2RLK9 19-455, looked up)
chain: CDDDLSPIGGSIQPPSDPVSARVDTLEFSVKTIPMGDIYNRTNYTLLGDLTDPEYGDLKADYIMQFKSPRNFKFKYPPKDGKIDSVKLSINYDSWAGDSTSIMKVSIYKINKAIPPSYYSTQELASLLDETQIIASQTFKAGNDSAFHRVRIPLPNEIGQKIYDLSVNNPSVFDTQESFYNNVLGGLYVTTTTGTGVVLSVYNTQMAIFYSYKVAADSTATASETFVNTSESYQVNHIKNSQISHLLQENDSLSCVKSPAGVMTQLTISKEQFTDAFTSNLSSSLAWQIGEAQFNISASKPSEGLMLSPPSYLLLLPQDSVRNFFEQEQTELMQPRTAFLSTIYNIKKREYRFSNISRLLMEHIKNNTEKTPEGKPYITKDLVLVLLPVKRQVAGASNSLYTSQLNNFMFPSGVKLQLGKKNKTARIGVYSMTYTDN
modifications: tri-acylated lipid anchor; O-glycosylation (7 sites)
notes: BamH (PGN_1735) of Porphyromonas gingivalis strain ATCC 33277, surface-exposed lipoprotein; 88 residues shorter than BtBamH; also called His-tagged BamH; source: C-terminally His-tagged by homologous recombination in P. gingivalis; membranes solubilised in 1% DDM; not shown: His7, C-terminal, kept
B7: PgBamG, BamG of P. gingivalis ATCC 33277 (natural protein, UniProt B2RKY8 31-434, looked up)
chain: QNNNFTESPYTRFGLGRLGERTTISGHSMGGLGVGLRQGTYVNAVNPASYSAVDSMTFIFDFGASTGITWYAENGKKDNRKMGNIEYFAMLFPISKSIAMSAGVLPYSASGYQFGSVDQVEGGSVQYTRKYLGTGNLNDLYVGIGATPFKNFSIGANASFLFGRFTHSRQVIFSTEAPYNPVHLSTLYLKAAKFDFGMQYHLPLKSDRSLVIGAVYSPRVKMHSELTQIKNQVQNGVVVESETQEYIKGMDYYTLPHTLGIGFSYEKKDKLLLGADVQYSKWKGEKFYKSDCKFQDRIRVSLGGEIMPDINAVGIWPKVRYRFGLHGENSYLKVPTKGGVYQGYHIVGAVFGIGIPLNDRRSFVNVSLEYDRLIPKEGMIKENALKLTFGLTFNESWFKKLKLN
modifications: O-glycosylation (Ser85)
notes: BamG of Porphyromonas gingivalis strain ATCC 33277; source: endogenous, P. gingivalis expressing His-tagged BamH, membranes solubilised in 1% DDM

Legend:
[1] = target: B6; test: cryo-EM structure; PgBAM complex co-purified through C-terminally His-tagged BamH from P. gingivalis membranes, in DDM, 4.9 mg/ml; 3.24 Å class without periplasmic density; AF2 models docked and refined; conditions: both partners purified
[2] = target: T1, BtBamA (Bt3725), B. thetaiotaomicron …; test: affinity purification with mass spectrometry; chromosomally His7-tagged BamA as bait; B. thetaiotaomicron total membranes solubilised in TBS with 0.75% DDM and 0.75% DM; Ni IMAC, SEC in 10 mM HEPES-NaOH, 100 mM NaCl, 0.03% DDM pH 7.5; SDS-PAGE bands of pooled SEC peak fractions identified by peptide fingerprinting; IMAC elutions by quantitative proteomics against untagged wild-type cells; conditions: partners not purified
[3] = target: T2, BtBamH (Bt4306); test: cryo-EM structure; BtBAM complex co-purified through BamAhis from native membranes, in DDM, 8 mg/ml; two 3D classes (3.28 Å and 3.46 Å); AF2 models docked and refined; conditions: both partners purified
[4] = target: T3, PgBamA, BamA of P. gingivalis ATCC 33277; test: cryo-EM structure; PgBAM complex co-purified through C-terminally His-tagged BamH from P. gingivalis membranes, in DDM, 4.9 mg/ml; 3.24 Å class without periplasmic density; AF2 models docked and refined; conditions: both partners purified

Binder: B1
- binding result [1]: binds

Binder: B2
- binding result [2]: binds

Binder: B3
- binding result [3]: binds

Binder: B4
- binding result [3]: binds

Binder: B5
- binding result [1]: binds

Binder: B6
- binding result [4]: binds

Binder: B7
- binding result [4]: binds
- binding result [1]: binds
